Consider 5 molecules from patent US6897295 (MOCHIDA PHARMACEUTICAL, dated 2005).

Assay [1] addresses T1, rat Fas ligand (encoded by clone pTN24-15) (rat, UniProt P36940 1-278).
T1 construct: Full-length type II membrane protein of 278 residues; It stood on d10S cells and on COS-7 cells transfected with pTN24-15; It was also used as NP-40 lysate of these cells (immunoprecipitation) and as protein purified from the d10S-12 membrane fraction (about 40 kD); also called Fas ligand on the d10S cells; COS/pTN24-15
T1 sequence: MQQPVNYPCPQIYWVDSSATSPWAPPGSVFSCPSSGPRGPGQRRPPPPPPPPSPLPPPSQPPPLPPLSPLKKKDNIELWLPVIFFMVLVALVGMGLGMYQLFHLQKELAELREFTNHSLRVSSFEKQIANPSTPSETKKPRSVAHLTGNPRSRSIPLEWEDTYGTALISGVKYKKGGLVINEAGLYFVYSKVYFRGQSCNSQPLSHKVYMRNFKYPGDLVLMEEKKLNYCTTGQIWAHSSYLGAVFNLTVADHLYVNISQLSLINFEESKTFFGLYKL
In words: flow cytometry on d10S cells, phycoerythrin-labeled streptoavidin. As to the method:
PC60-d10S cells (to be referred to as "d10S" hereinafter; Rouvier E. et al., J. Exp. Med., vol. 177, pp. 195–200, 1993) were washed with a staining solution (phosphate-buffered saline (to be referred to as "PBS" hereinafter) containing 2% FCS and 0.02% NaN₃). About 1 ×10^6 of the cells were suspended in 50 μl of the staining solution supplemented with 5 μg/ml of rat anti-mouse FcγRII blocking antibody (Pharmingen). This suspension was dispensed into wells of a 96 well plate and incubated for 10 minutes on an ice bath. A 20 μg/ml solution of the biotinylated mFas-Fc was dispensed into wells of the resulting plate in 50 μl portions, and the incubation was continued for additional 30 minutes on an ice bath. […]
After washing the cells with the staining solution, cytometric analysis was carried out using FACScan (Becton Dickinson). As the result, a slight shift in the fluorescence intensity was observed which confirmed that said cells were stained with the biotinylated mFas-Fc (see FIG. 1(A). Control was expressed as an open area, and staining before 4 hours of treatment with PMA and ionomycin as a stippled area and staining after 4 hours of treatment with PMA and ionomycin as a closed area.

The target in assay [2] is T2, human Fas antigen on WC8A / WC8 cells (human, UniProt P25445 26-335).
T2 construct: whole, on cells
T2 sequence (looked up): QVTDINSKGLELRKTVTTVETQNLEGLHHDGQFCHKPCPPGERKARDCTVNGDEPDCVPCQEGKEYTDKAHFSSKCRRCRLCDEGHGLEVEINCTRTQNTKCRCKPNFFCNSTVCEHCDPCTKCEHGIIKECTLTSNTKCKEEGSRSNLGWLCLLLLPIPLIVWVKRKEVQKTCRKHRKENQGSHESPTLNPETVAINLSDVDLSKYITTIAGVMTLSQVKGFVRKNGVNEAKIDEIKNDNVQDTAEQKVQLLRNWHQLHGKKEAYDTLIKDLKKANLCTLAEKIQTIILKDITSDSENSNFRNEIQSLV
In words: concluded from cytotoxicity of the culture supernatant on cells expressing human Fas antigen.

Assay [3] has as its target T3, mouse Fas antigen on W4 cells (mouse, UniProt P25446 22-327).
T3 construct: whole, on cells; also called Fas antigen-expressing W4 cells
T3 sequence (looked up): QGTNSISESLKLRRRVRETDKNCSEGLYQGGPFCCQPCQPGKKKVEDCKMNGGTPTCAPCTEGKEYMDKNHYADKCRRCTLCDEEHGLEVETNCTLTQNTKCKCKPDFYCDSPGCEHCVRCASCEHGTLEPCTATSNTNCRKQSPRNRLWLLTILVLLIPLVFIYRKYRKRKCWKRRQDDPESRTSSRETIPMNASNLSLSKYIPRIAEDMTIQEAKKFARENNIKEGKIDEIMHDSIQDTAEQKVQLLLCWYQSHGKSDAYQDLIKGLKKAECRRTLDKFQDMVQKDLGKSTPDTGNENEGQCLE
In words: concluded from cytotoxicity on W4 cells and its inhibition by mFas-Fc. Here is the method:
Cytotoxic activity of recombinant cells was measured in the same manner as described in Inventive Example 8, using the transformed COS cells (COS/pEF-MFLW4F) obtained in the above step (2) as the effector cells and 10^6 cells-of WR19L or W4 as the target cells. The W4 is a transformant which acquired mouse Fas antigen-expressing ability through the transformation of mouse WR19L cells. That is, 10^6 cells of WR19L or W4 were labeled with ^51Cr by culturing the cells at 37° C. for 2 hours in RPMI 1640 medium containing 20 μCi of (^51Cr) sodium chromate (Amersham).
The thus ^51Cr-labeled cells (1×10^4) were mixed with COS/pEF-MFLW4F cells at various mixing ratios and cultured at 37° C. for 4 hours, subsequently measuring cytotoxic activity using released ^51Cr as an index. […] In addition, the cytotoxicity of COS/pEF-MFLW4F cells was inhibited by the addition of 20 μg/ml of the chimera protein containing the extracellular domain of mouse Fas antigen (mFas-Fc) prepared in Inventive Example 1, but was not inhibited by the addition of the soluble type human TNF receptor (hTNFRβ-Fc).

The target in assay [4] is T2, human Fas antigen on WC8A / WC8 cells. In words: concluded from cytotoxicity on WC8A cells and its inhibition by hFas-Fc and mFas-Fc. As to the method:
Cytotoxic activity of recombinant cells was measured in the same manner as described in Inventive Example 8, using the COS-7 cells transformed in the above step (2) as the effector cells and 10^6 cells of WR19L or WC8A as the target cells. The WC8A is a transformant which acquired human Fas antigen-expressing ability through the transformation of mouse WR19L cells (Itoh N. et al., *J. Immunol.*, vol. 151, pp. 621–627, 1993).
The thus ^51Cr-labeled cells (1 ×10^4) were mixed with COS/pEX-hFL1 cells at various mixing ratios and cultured at 37° C. for 4 hours, subsequently measuring cytotoxic activity using released ^51Cr as an index.

B1: chimera protein of TNF receptor beta and Fc region of human IgG1 (Fc fusion, UniProt P19438 30-211, looked up)
chain: LVPHLGDREKRDSVCPQGKYIHPQNNSICCTKCHKGTYLYNDCPGPGQDTDCRECESGSFTASENHLRHCLSCSKCRKEMGQVEISSCTVDRDTVCGCRKNQYRHYWSENLFQCFNCSLCLNGTVHLSCQEKQNTVCTCHAGFFLRENECVSCSNCKKSLECTKLCLPQIENVKGTEDSGTT
modifications: biotinylated with NHS-LC-biotin in the flow cytometry; unlabelled in the cytotoxicity assays
notes: extracellular domain; Control fusion protein; also called hTNFRβ-Fc; soluble type human TNF receptor; not shown: human IgG1 Fc region (hinge, CH2, CH3, as in pFas-FcII)
Regarding B1, in assay [1], the binding result was “no binding”.

B2: extracellular domain of the human Fas ligand secreted by transformant COS-1/pM1070 (ligand)
chain: QLFHLQKELAELRESTSQMHTASSLEKQIGHPSPPPEKKELRKVAHLTGKSNSRSMPLEWEDTYGIVLLSGVKYKKGGLVINETGLYFVYSKVYFRGQSCNNLPLSHKVYMRNSKYPQDLVMMEGKMMSYCTTGQMWARSSYLGAVFNLTSADHLYVNVSELSLVNFEESQTFFGLYKL
notes: Expressed behind the signal peptide of the human Fas antigen, which is not counted here; Tested as culture supernatant; also called culture supernatant of COS-1/pM1070
With B2, in assay [2], the binding result is listed as “binds”.

B3: chimera protein of the extracellular domain of mouse Fas (mFas) antigen and the Fc region of human IgG1 (hIgG1) (Fc fusion, UniProt P25446 22-169, looked up)
chain: QGTNSISESLKLRRRVRETDKNCSEGLYQGGPFCCQPCQPGKKKVEDCKMNGGTPTCAPCTEGKEYMDKNHYADKCRRCTLCDEEHGLEVETNCTLTQNTKCKCKPDFYCDSPGCEHCVRCASCEHGTLEPCTATSNTNCRKQSPRNR
modifications: biotinylated with NHS-LC-biotin in the flow cytometry; unlabelled in the other assays
notes: extracellular domain; Made from plasmid pFas-FcII in COS-7 or BTS-1 cells; also called mFas-Fc; biotinylated mFas-Fc; not shown: human IgG1 heavy chain constant region: hinge, CH2 and CH3 domains
For the molecule B3, in assay [1], the binding result is on record as “binds”.

B4: mouse Fas ligand (encoded by pEF-MFLW4) (ligand)
chain: MQQPMNYPCPQIFWVDSSATSSWAPPGSVFPCPSCGPRGPDQRRPPPPPPPVSPLPPPSQPLPLPPLTPLKKKDHNTNLWLPVVFFMVLVALVGMGLGMYQLFHLQKELAELREFTNQSLKVSSFEKQIANPSTPSEKKEPRSVAHLTGNPHSRSIPLEWEDTYGTALISGVKYKKGGLVINETGLYFVYSKVYFRGQSCNNQPLNHKVYMRNSKYPEDLVLMEEKRLNYCTTGQIWAHSSYLGAVFNLTSADHLYVNISQLSLINFEESKTFFGLYKL
notes: Full-length protein of 279 residues on transfected COS cells; In the western blots it stood as reduced SDS extract of these cells; also called COS/pEF-MFLW4F
In the case of B4, the binding result in assay [3] is “binds”.

B5: human Fas ligand (encoded by pEX-hFL1) (ligand)
chain: MQQPFNYPYPQIYWVDSSASSPWAPPGTVLPCPTSVPRRPGQRRPPPPPPPPPLPPPPPPPPLPPLPLPPLKKRGNHSTGLCLLVMFFMVLVALVGLGLGMFQLFHLQKELAELRESTSQMHTASSLEKQIGHPSPPPEKKELRKVAHLTGKSNSRSMPLEWEDTYGIVLLSGVKYKKGGLVINETGLYFVYSKVYFRGQSCNNLPLSHKVYMRNSKYPQDLVMMEGKMMSYCTTGQMWARSSYLGAVFNLTSADHLYVNVSELSLVNFEESQTFFGLYKL
notes: Full-length protein on COS-7 cells (COS/pEX-hFL1) or FDC-P1 cells (FLh1); In the western blots it stood as reduced SDS extract of the transfected COS cells; also called COS/pEX-hFL1; human Fas ligand-expressing COS cells
Take B5: in assay [4], the binding result was “binds”.
